Results: patent US11339381B2, “Nucleotide sequence encoding 9-lipoxygenase and recombinant constructs comprising the same” (Council of Scientific & Industrial Research, priority 2016, dated 2022)

B1: Mi9LOX: Recombinant Mangifera indica 9-lipoxygenase from Alphonso mango, 841 aa, SEQ ID NO: 2 (protein)
chain: MGTVVLMKKNFLDFNDLSASVIDRVDELVGKRVSLQLVSAFNSDPTASNGLQGKVGEPAHLEEWITTITPLVAEESTFKVTFDWDEQIGVPGAFIIKNNHHSGFYLKSLTLEDVPNQGRIHFVCNSWVYPAKRYKKDRVFFTNKTYLPGEMPAPLQYYREQELLNLRGDGTGELQEWDRVYDYAYYNDLGDPDNGKPRPVLGGSTEYPYPRRGRTGRPPAKTDPETESRLPLLTSLNIYVPRDERFGHIKMSDFLGYALKSISQFIEPALESVFDSTPNEFDNFAQIYKLYDEGIQLPNDHFLDDIRNNIPLELLKEIFPTNEDNLFEFPTPQVIQGDRSAWRTDEEFAREMLAGPNPVIIRRVEEFPPRSKLDPELYGDQDSKITKQHIESYLDGLTVEQAIEKNELFILDHHDSLMTYLRRINTTSTKTYASRTILFLKEDGTLKPLAIELSRPHPDGDQYGAISNVYTPSEDEVEGSIWQLAKAYVAVNDSGVHQLISHWLKTHAAIEPFVIATNRQLSVLHPIYKLLQPHFRDTMNINAFARQIVINAGGILETTVFPAKYAMEMSSAIYKDWTFPDQALPEDLKNRGMAVEDPNSPHGLRLLIADYPYAVDGLEIWFAIKNWVKDYCYFYYKSDEMMQKDSGLQSWWKELREEGHGDKKDEPWWPKMQNREELIEACTIIIWIASALHAAVNFGQYPYAGFLPNRPTMSRRFMPEKGTPDYDELESNFDKVFLKTITAQRQTLLGIALIETLSRHSSDEMYLGQRDTPEWTSDKIPLQAFEDFGKKLGDIEVRIITRNHDNMLKNRVGPVNMPYTLLYPTSEGGLTGKGIPNSVSI
modifications: Protein sequence of 7- Dehydrocholestrol reductase (7-DHCR)

Key:
[1] = tested on: ethylene treated mango fruits; experiment: In vivo transient over expression of 9-lipoxygenase by Agrobacterium mediated infiltration; set-up: species or system Alphonso mango (Mangifera indica); conditions: for δ-decalactone content compared to control tissue / δ-valerolactone content compared to control tissue: transient over expression, 2 days post infiltration, GC-FID
Method: The full length polynucleotide sequence (SEQ ID NO: 1) encoding 9-lipoxygenase (SEQ ID NO: 2) was cloned into the pBI121 plant expression vector between CaMV 35S promoter and GusA gene. Terminal primers were designed (SEQ ID NO: 10 and SEQ ID NO: 11) to clone genes at BamHI restriction site. The resulted correct oriented construct pBI121+Mi9LOX and pBI121 empty vector were transformed in the Agrobacterium GV3101 strain for transient expression studies. Separate Agrobacterium cultures (5 mL) were initiated from individual colonies in YEB medium having appropriate antibiotics and incubated overnight at 28° C. This culture was transferred to 50 mL induction medium (0.5% beef extract, 0.1% yeast extract, 0.5% peptone, 0.5% sucrose, 2 mM MgSO4, […], 10 mM MES, pH 5.6) having appropriate antibiotics, and again grown overnight. On the succeeding day, cultures were recovered by centrifugation, resuspended in infiltration medium (10 mM MgCl2, 10 mM MES, […], pH 5.6) till optical density reaches 1.0. This suspension was again incubated at 28° C. with gentle agitation for 2 hrs. Over expression studies for 9LOX was carried out by Agrobacterium mediated infiltration in ethylene treated mango fruits at 3DAH stage by using hypodermic syringe (FIG. 4a). Equal volumes of pBI121+Mi9LOX and pBI121 construct containing cultures were used for infiltration in two different halves of same mango fruit separated by fruit stone. Set of five distinct mango fruits were used for the overexpression study as data set. Infiltrated fruits were kept at 25° C. for 2 days in 12 hr dark and 12 hr light conditions, after 2 days; part from each fruit halves was checked by the Gus staining (Kapila et al. 1997; Spolaore et al. 2001) to confirm expression of Mi9LOX under 35S promoter along with GusA, remaining part of fruit pulp stored in −80° C. until used for the lactone analysis by gas chromatography.
Thus, ethylene treated mangoes were ideal for Agrobacterium infiltration studies as Agrobacterium infiltrated fruits cannot be incubated for more than 2 days due to the risk of bacterial and fungal infection owing to fruit injury during infiltration. Two days post infiltration, a part of fruit was checked by Gus staining (FIG. 4b) to confirm expression of GusA along with the Mi9LOX gene. The remaining tissue was used for the lactone content analysis. The lactones were analysed from control and test region of fruits from Mi9LOX sets. Total 8 lactones viz. γ-butyrolactone, δ-valerolactone, γ-hexalactone, δ-hexalactone, γ-octalactone, δ-octalactone, γ-decalactone and δ-decalactone were detected from all the tissues in GC-MS analysis.

[2] = tested on: recombinant 9-lipoxygenase (Mi9LOX); experiment: Recombinant Mi9LOX enzyme kinetics with LA and ALA as substrates (conjugated diene formation at 234 nm); format: biochemical, Mangifera indica; conditions: substrate of Mi9LOX
Method: The recombinant 9-lipoxygenase (Mi9LOX) activity assays was initially carried out in 250 μl final volume of 100 mM phosphate citrate buffer pH 7.0 at 30° C. containing 200 μM substrate (LA/ALA) and 0.005% Tween20. The activity was measured by formation of the conjugated diene at absorbance of 234 nm, applying an extinction coefficient 25000 M^-1 cm^-1 for both the substrates. […] at 0th min for each reaction is considered as blank and subtracted from […] for given time (t). Similar activity assays were also performed with protein expressed from empty vector for the confirmation of Mi9LOX activity. Optimum pH was determined by calculating activity at varied range of pH in phosphate citrate buffer at 30° C., whereas temperature optima was determined by calculating recombinant 9-lipoxygenase activity in phosphate citrate buffer pH 7 at various temperatures. The purified recombinant 9-lipoxygenase having amino acid sequence as set forth in SEQ ID NO: 2 used linoleic acid (LA) and alpha linolenic acid (ALA) as substrates. Activity of the recombinant 9-lipoxygenase protein was measured spectrophotometrically at 234 nm by the formation of conjugated dienes. For unit calculations, molar extinction coefficient for hydroperoxy linoleate and linolenate was considered 25000 cm^-1M^-1. […]

[3] = tested on: recombinant 9-lipoxygenase (Mi9LOX); experiment: pH and temperature activity profile of recombinant Mi9LOX; format: biochemical, Mangifera indica; conditions: for Optimum temperature: phosphate citrate buffer pH 7
Method: The recombinant 9-lipoxygenase (Mi9LOX) activity assays was initially carried out in 250 μl final volume of 100 mM phosphate citrate buffer pH 7.0 at 30° C. containing 200 μM substrate (LA/ALA) and 0.005% Tween20. The activity was measured by formation of the conjugated diene at absorbance of 234 nm, applying an extinction coefficient 25000 M^-1 cm^-1 for both the substrates. […] at 0th min for each reaction is considered as blank and subtracted from […] for given time (t). Similar activity assays were also performed with protein expressed from empty vector for the confirmation of Mi9LOX activity. Optimum pH was determined by calculating activity at varied range of pH in phosphate citrate buffer at 30° C., whereas temperature optima was determined by calculating recombinant 9-lipoxygenase activity in phosphate citrate buffer pH 7 at various temperatures. The purified recombinant 9-lipoxygenase having amino acid sequence as set forth in SEQ ID NO: 2 used linoleic acid (LA) and alpha linolenic acid (ALA) as substrates. Activity of the recombinant 9-lipoxygenase protein was measured spectrophotometrically at 234 nm by the formation of conjugated dienes. For unit calculations, molar extinction coefficient for hydroperoxy linoleate and linolenate was considered 25000 cm^-1M^-1. 9HpODE and 9HpOTrE products formed by the activity of Mi9LOX on LA and ALA respectively were confirmed by UPLC-HRMS. […] (FIG. 10(a)).

[4] = HRMS intermediate metabolite analysis

Row | Molecule | δ-decalactone content compared to control tissue [1] [fold] | δ-valerolactone content compared to control tissue [1] [fold] | Km [2] [µM] | Vmax [2] | 9HpODE in control and test tissues [1, 4] | increase in 9HpOTrE upon Mi9LOX over expression [1, 4] [folds] | increase of Mi9LOX transcripts in test tissues as compared to the control tissues ([1]; upon Agrobacterium infiltration) | reduction in the activity ([3]; at 35° C.) [%] | reduced activity ([3]; at 50° C.) [%] | reduction in the activity ([3]; at pH 5 and 9) [%] | Optimum pH ([3]; phosphate citrate buffer at 30° C.) | Optimum temperature [3] [°C] | Optimum temperature ([3]; listed as recombinant 9-lipoxygenase) [°C]
1 | SEQ ID NO: 1: 2526 bp cDNA polynucleotide encoding 9-lipoxygenase, cloned in pBI121 and agroinfiltrated for transient over expression | 1.48 | 1.08 | – | – | – | – | – | – | – | – | – | – | –
2 | CCCCC/C=C\C/C=C\CCCCCCCC(=O)O [LA, linoleic acid] | – | – | 354 | LA- 611.11 ± 55.55 μM min^−1mg^−1 | – | – | – | – | – | – | – | – | –
3 | B1 | 1.48 | 1.08 | – | – | not detected | 1.9 | 1.73 | 75 | 69 | 40 | 6.5 | 37 | 35
